The values that follow come from patent US20240110004A1 (Northwestern University, priority 2022, published 2024).

The test system of one data set is WT mice. In words: P1 treatment of WT littermates in the efficacy study. The data set is classed as in vivo, mouse. From the text: FIG. 31A-31F: For each of FIG. 31A-31F, data is shown reflecting the results of 3 separate studies (i.e., “Batch 1+2+3”) conducted under identical conditions; “veh” refers to the vehicle saline control. For each of FIG. 31A-31C at week 6, WT: n=15; WT+P1: n=15; R62 veh: n=22; R62+HV3-TAT: n=32; and R62+P1: n=16. For each of FIG. 31D-31F at week 6, WT: n=15; WT+P1: n=15; R62 veh: n=17; R62+HV3-TAT: n=30; and R62+P1: n=13. FIG. 31A depicts the average percent of body weight gain for mice subjected to each treatment. From top to bottom, the week 13 data points correspond to: WT+P1 (˜43%); WT (˜39%); R62+P1 (˜1%); R62+HV3-TAT (˜ 4%); and R62 (˜-9%). […]
In vivo Efficacy Methods—Behavioral Analysis: All experiments in animals were conducted in accordance with protocols approved by the Institutional Animal Care and Use Committee of Northwestern University and were performed based on the National Institutes of Health Guide for the Care and Use of Laboratory Animals. […] Accordingly, hindlimb clasping was assessed with the tail suspension test weekly from the ages 7 to 13 weeks in R6/2 mice and WT littermates. Mice were suspended by the tail for 60 sec and the latency for the hindlimbs or all four paws to clasp was recorded using the following score system: clasping over 10 sec, score 3; 5-10 sec, score 2; 0-5 sec, score 1; 0 sec, score 0. […]

For data set [1] the following is noted: human, microsomes.
Method: At each time point, 10 μL of supernatant was diluted with 90 μL of water with 0.1% trifluoroacetic acid.

Where no end group is shown, it is not given here.

Method for enzymes: Stability of PLPs Methods I: For enzyme-induced cleavage experiments, the molar concentration of enzymes was set to 0.1 μM. The concentration of side-chain peptides (having sequence identity of SEQ ID: 1) varied in the range of 50-200 μM. For each enzyme, temperature was set for optimal enzyme activity. In a typical experiment, P1 or HV3-TAT was dissolved in DPBS (pH 7.4) or hydrochloric acid solution (pH 2), to obtain a stock polymer/peptide solution with a peptide concentration of 200 μM. Next, 5 μL of enzyme stock solution (10 μM) was added into 500 μL of the polymer/peptide solution which was subsequently stirred in a preheated oil bath at 37° C. In this case, the molar ratio of peptide substrate to enzymes was 2000:1. During the cleavage, aliquots were taken for HPLC analysis at predetermined time points. Each degradation experiment was repeated three times. Enzyme pretreated P1 was also run on SDS-PAGE and visualized with Coomassie Blue staining.

Substance “P1: PLP homopolymer having peptide side chains of SEQ ID: 1 (HVLVMSATRR), made by ROMP of norbornene peptide monomer M1 (also: side chains of polynorbornene homopolymer (PLP, ROMP of norbornene peptide monomer))” returned a survival rate in the data set with WT mice (WT mice) of 100%. Moreover, the “effects on motor ability, body weight, or neuropathology” value with WT mice (mouse, in vivo) was “no significant effects”. Moreover, the “molecular weight on SDS-PAGE after enzyme treatment” value in the data set on enzymes was “maintained molecular weight”. Also, in data set [1], the liver microsomal stability entry is recorded as “superior stability”.
